Experiments:
[1] = molecular target: centrosomin CM2 aa1090-1148 (monomeric CM2) (Drosophila melanogaster) (UniProt P54623); assay: NMR titration; 2D [15N,1H]-HSQC of 100μM 15N labeled monomeric CM2 with 18μM CaM; 2mM EGTA added in place of 2mM CaCl2; 300K; 20mM PIPES pH 6.8, 140mM NaCl; apparent affinity
[2] = molecular target: CM2 Δ1130–1148 (Drosophila melanogaster) (UniProt P54623); assay: SEC-MALS; KW-802.5 size exclusion column with inline MALS and refractive index detectors; 50mM HEPES pH 7.0, 200mM NaCl, 1mM DTT; dimer constructs also at submicromolar concentrations (1μM and 9μM for aa1074-1148)
[3] = molecular target: the molecule itself; assay: as above
[4] = molecular target: T1, GB1-CNNLZ (CNN aa490-567 fused to the GB1 solubility tag) (Drosophila melanogaster, UniProt P54623-2 490-567); assay: NMR titration; 2D [15N,1H]-HSQC of 100μM 15N labeled CM2 with unlabeled partner added; 300K; 20mM PIPES pH 6.8, 140mM NaCl, 0.01% NaN3, 5% D2O, 2mM CaCl2; 800 MHz; conditions: both partners purified
T1 construct: centrosomin (CNN), Drosophila melanogaster, residues 490-567 with the leucine zipper, the same fragment as in the crystal structure 5MWE; The introduction gives aa490-544 for CNNLZ of Feng et al; the results give aa490-567 for the fragment used here; also called GB1-CnnMD; source: E. coli, purified (NiNTA, size exclusion)
T1 sequence (looked up): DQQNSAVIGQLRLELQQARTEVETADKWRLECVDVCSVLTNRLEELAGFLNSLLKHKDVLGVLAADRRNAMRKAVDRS

With “calmodulin (from UniProt P62152 1-149) (natural protein)” as the molecule, how does the reduction of the apparent affinity without calcium (2mM EGTA) against 2mM CaCl2 [1] read?
Its reduction of the apparent affinity without calcium (2mM EGTA) against 2mM CaCl2 is 50 to 70%.

Which stoichiometry N [2] does the source give for “CM2 Δ1130–1148 (from UniProt P54623-2 1-1129) (domain or fragment)” here?
Its stoichiometry N is 2.

B1: centrosomin CM2 aa1064-1148 (longer dimeric CM2) (domain or fragment, Drosophila melanogaster, UniProt P54623-2 1064-1148, looked up)
chain: ESTSPDSKSNVATGAATVHDCAKVDLENAELRRKLIRTKRAFEDTYEKLRMANKAKAQVEKDIKNQILKTHNVLRNVRSNMENEL
notes: centrosomin (CNN), Drosophila melanogaster, residues 1064-1148, from cDNA LD19135; source: E. coli, purified (NiNTA, cation exchange, size exclusion)
With B1 as the molecule, how does the “stoichiometry N” value [3] read?
The value was 2.

B2: centrosomin CM2 aa1090-1148 (monomeric CM2) (domain or fragment, Drosophila melanogaster, UniProt P54623-2 1090-1148, looked up)
chain: ENAELRRKLIRTKRAFEDTYEKLRMANKAKAQVEKDIKNQILKTHNVLRNVRSNMENEL
notes: centrosomin (CNN), Drosophila melanogaster, residues 1090-1148 (start of the predicted coiled coil to the C-terminus), from cDNA LD19135; 15N-labelled (or 13C/15N) in the NMR experiments; also called CM2 monomer; truncated CM2; source: E. coli, purified (NiNTA, cation exchange; non-labeled protein also size exclusion)
Does B2 bind [4]?
Result: binds

B3: centrosomin CM2 aa1074-1148 (minimal dimeric CM2) (domain or fragment, Drosophila melanogaster, UniProt P54623-2 1074-1148, looked up)
chain: VATGAATVHDCAKVDLENAELRRKLIRTKRAFEDTYEKLRMANKAKAQVEKDIKNQILKTHNVLRNVRSNMENEL
notes: centrosomin (CNN), Drosophila melanogaster, residues 1074-1148, from cDNA LD19135; 15N-labelled in the NMR experiments; also called CM2 dimer; minimal dimer construct; source: E. coli, purified (NiNTA, cation exchange; non-labeled protein also size exclusion)
Which “stoichiometry N” value [3] does the source give for B3 here?
The value was 2.
